Test results published in patent US11407840B2, “Antibodies to M(H)DM2/4 and their use in diagnosing and treating cancer” (NomoCan Pharmaceuticals LLC, priority 2017, dated 2022).

B1: NMC-204: mouse monoclonal antibody, IgG3 isotype, binds NMC-P2 (SEQ ID NO:2); VH SEQ ID NO:38, VL SEQ ID NO:39 (antibody, V domains shown)
VH: EVQLQESGSVLVRPGASVKLSCKASGDTLSGSWMHWAMQRPGQGLEWIGEIHLNRGTTNYNEKFKGKATVTVDTSSSTAYVDLSSLTSEDSAVYYCARSPGFAYWGQGTLVTVSA
VL: GIVMTQAAPSVPVTPGESVSISCRSSKSLLHSNGNSYLYWFLQRPGQSPQLLIYRMSNLASGVPDRFSGSGSGTAFTLRITRVEAEDVGVYYCMQHLEYPFTFGSGTKLEIK
modifications: mAb NMC-204 Heavy Chain Variable Region; mAb NMC-204 Light Chain Variable Region
B2: NMC-103: mouse monoclonal antibody, IgG1 isotype, binds NMC-P1 (SEQ ID NO:1); VH SEQ ID NO:36, VL SEQ ID NO:37 (antibody, V domains shown)
VH: EVQLQESGGGLVQPGGSLRLSCTTSGFTFTHYYMSWVRQPPGKALEWLGFIRNKAKGYTAEYSASVKGRFTISRDNSQSILYLQMNTLRPEDSATYYCARDIGDNWGQGTLVTVSS
VL: DIVMTQAAFSNPVTLGTSASISCRSSKNLLHSNGITYLYWYLQRPGQSPQLLISRVSNLASGVPNRFSGSESGTDFTLRISRVEAEDVGVYFCAQLLELPYTFGGGTKLEIK
modifications: mAb NMC-103 Heavy Chain Variable Region; mAb NMC-103 Light Chain Variable Region

How the values were obtained:
[1] = target: T1, recombinant full-length HDM2 protein (GST tagged) (Homo sapiens, UniProt Q00987); experiment: Western blot (immunoblot); format: binding; conditions: 1 μg/well protein; band at approximately 83 kD; FIG. 2
T1 construct: reacted with the recombinant full-length HDM2 protein; purchased Abcam ab188727
T1 sequence (Q00987 whole entry): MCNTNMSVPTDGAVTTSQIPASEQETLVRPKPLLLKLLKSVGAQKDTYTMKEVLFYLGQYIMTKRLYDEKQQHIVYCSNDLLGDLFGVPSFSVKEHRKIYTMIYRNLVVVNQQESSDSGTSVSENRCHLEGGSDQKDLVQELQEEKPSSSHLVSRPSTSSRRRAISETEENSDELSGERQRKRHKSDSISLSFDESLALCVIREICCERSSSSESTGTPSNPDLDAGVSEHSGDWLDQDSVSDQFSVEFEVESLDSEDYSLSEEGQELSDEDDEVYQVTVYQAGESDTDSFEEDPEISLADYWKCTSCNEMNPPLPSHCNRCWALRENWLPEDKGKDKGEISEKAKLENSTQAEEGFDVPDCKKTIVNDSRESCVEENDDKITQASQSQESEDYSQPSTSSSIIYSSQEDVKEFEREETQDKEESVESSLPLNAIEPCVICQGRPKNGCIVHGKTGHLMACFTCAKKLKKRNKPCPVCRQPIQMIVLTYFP
Description: Western Blot: As for immunoblots, 1 μg/well of recombinant FIDM2 protein (GST tagged, Abeam, Cat. No. ab188727) was separated on 8-16% sodium dodecyl sulfate (SDS) polyacrylamide gel and proteins were then transferred to polyvinylidene difluoride (PVDF) membrane. The membrane was blocked with 5% milk followed by incubation with monoclonal antibody NMC-103, NMC-204 or NMC-303 at 1 μg/πι ? in 1% milk in PBS for 2 hours. The membrane was then washed×3 times (10 minutes each) and incubated for 1 hour with corresponding HRP-conjugated secondary antibody (Goat anti-Mouse IgG (H&L), F(ab′)2 Frag Cross-adsorbed HRP (HRP-GaM F(ab′)2), ThermoFisher, Cat. No. A24524) diluted 1:5000 in 1% BSA-PBS. The membrane was then washed×3 times and incubated with Pierce ECL Plus Western Blotting Substrate (ThermoFisher, Cat. No. #32132) for 10 min before developing on a LICOR Scanner.

[2] = test system: Human pancreatic cancer MIAPaCa-2 cells; experiment: In vitro growth inhibition (cell count); format: cell-based; conditions: overnight
Description: Methodology used: Human pancreatic cancer MIAPaCa-2 cells (8,000 cells/well) were pre-incubated with mAb NMC-103, NMC-204 and anti-Cytochrome-C antibody (Santa Cruz, Cat No. sc-13156) at 1, 5 and 10 μg/mL, respectively. Cells in the presence of one of the antibodies at various concentrations were then plated in triplicate in 96-well cell culture plates overnight. The next day, each plate well was analyzed morphologically and a picture was taken from each well using EVOS FL microscope. Cell count was also performed and the number of living cells was graphed as % of control.

[3] = test system: mouse Lewis Lung LL/2 cancer cells; experiment: Flow cytometry, EDTA versus trypsin, intact versus permeabilized cells; format: binding; conditions: antibody 5 μg/ml, FIG. 11
Description: Flow Cytometry Methodology: Cells that had been allowed to grow to about 80% confluency in 25 cm^2 tissue culture flasks were released with either EDTA (10 mmols; pH7.2; 5 min, 37° C.) or Trypsin (Gibco TrypLE Express), fixed with freshly made 4% buffered (pH 7.4) paraformaldehyde for 1 h at room temperature, washed several times with a large volume of ice-cold PBS, and blocked for 30 minutes at room temperature with 5% human serum albumin in PBS (intact, non-permeabilized cells). After establishing viability, the cell number was adjusted to 10^6 cells/ml and kept in ice-cold PBS until staining. Another set of the same cells was released with either EDTA or Trypsin and fixed with 4% buffered paraformaldehyde as above, then washed and blocked with 5% human serum albumin in PBS, and was treated separately with Triton X-100 (0.1% in PBS) (International Biotechnologies Inc. 07100) for 5 minutes at room temperature for membrane permeabilization. After washing off the Triton X-100 solution with PBS the cells were adjusted to 10^6 cells/ml and stored in ice-cold PBS. Cells (10^6/ml) from each preparation were then incubated either with 5 μg/ml of mAb to Na+/K+ ATPase ? -1 (Abeam, Cat. No. ab2826), 5 μg/ml of mAb NMC-103, or 5 μg/ml of mAb NMC-204 for 90 min at room temperature. Following primary antibody incubation, cells were washed 3 times with ice-cold PBS followed by incubation with rabbit anti-mouse PE-Cy5 labeled secondary antibody (PE-Cy5-RaM IgG (H&L); Invitrogen, Cat. No. M35018) at room temperature. Sixty minutes later the cells were washed 3 times with PBS and subjected to flow cytometry analysis (BD Canto Flow Cytometry). Controls to establish background fluorescence included the analysis of samples of unstained cells as well as cells that had been processed with secondary antibody under the same conditions as used in the experimental samples.
To further validate that the epitopes of the plasma membrane M(H)DM2 are in fact extracellularly accessible sequences on cancer cells, binding of mAbs NMC-103, NMC-204 and NMC-303 was performed on mouse Lewis Lung LL/2 cancer cells under treatment conditions of EDTA versus trypsin. Both of these conditions were also tested on intact versus permeabilized cells. FIG. 11 panels A, B and C present flow cytometry data on % cells stained with mAbs NMC-103, NMC-204 and anti-Na+/K+ ATPase ? -1, respectively. Each antibody was reacted with cells from four treatment conditions: EDTA-treated intact cells, EDTA-treated permeabilized cells, trypsin-treated intact cells, trypsin-treated permeabilized cells. […] However, when trypsin-treaded cells were permeabilized, the above reduction in binding was compensated by reactivity of the antibodies to intracellular MDM2 or Na+/K+ ATPase a-1.

[4] = test system: normal human peripheral blood mononuclear cells (PBMCs); experiment: Cell-ELISA, intact normal cells; format: binding; conditions: freshly isolated PBMCs; FIG. 6
Description: Cell-ELISA Methodology: 8,000-10,000 cells/well of a 96-well microplate were grown overnight. The next day, unbound cells were washed off with sterile 1× PBS. The cells in each well were fixed with freshly prepared 4% buffered paraformaldehyde (pH 7.2) for 1 hour followed by 3 washes with 1× PBS. The wells were then blocked with 5% BSA in PBS (100 ? /well) for 2 hours at room temperature. Microplate wells were then washed 5 times with 300 ? of ice cold 1× PBS. MAbs NMC-103, NMC-204 or NMC-303 at 1 μg/mL in 1% BSA/PBS were then incubated with various cancer or normal untransformed cells for 2 hours at room temperature. Wells were then washed with 300 ? of ice-cold 1× PBS for 5 times and corresponding secondary antibody HRP-GaM F(ab′)2 diluted 1:2500 or 1:5000 in PBS with 1% BSA were added at 100 ? /well for 1 hour at room temperature followed by washing 5 times with 300 ? of ice-cold 1× PBS. TMB Substrate Solution (1-StepTM Ultra TMB-ELISA, ThermoFisher, Cat. No. 34028) was then added at 50 ? ? to each microplate well and incubated at room temperature for 30 minutes. The reaction was stopped by addition of 50 μL, of stop solution (ThermoFisher, Cat. No. SSO4) to each well and absorbance of each well was measured at OD450 nm. The absorbance value of each experimental well was corrected for the absorbance value obtained from wells treated with isotype-identical mAbs included in each experiment. The results are thus expressed as “relative binding”.

[5] = EDTA-treated permeabilized cells (Triton X-100)

Molecule	reactivity with recombinant full-length HDM2-GST protein in immunoblot [1]	growth inhibitory effect (FIG. 12D; number of living cells graphed as % of control) ([2]; antibody 1 μg/mL) [%]	growth inhibitory effect (FIG. 12D; number of living cells graphed as % of control) ([2]; antibody 5 μg/mL) [%]	growth inhibitory effect (FIG. 12D; number of living cells graphed as % of control) ([2]; antibody 10 μg/mL) [%]	% cells stained (flow cytometry) ([3]; EDTA-treated intact cells) [%]	% cells stained (flow cytometry) [3, 5] [%]	% cells stained (flow cytometry) ([3]; trypsin-treated intact cells) [%]	binding to intact normal human PBMCs, cell-ELISA [4]
B1	reacted	65	73	77	51.2	52.85	27	did not react
B2	reacted	65	84	91	70.4	75.8	36.8	virtually no binding
